# From the DeepSol protein solubility set
# Assay: soluble on expression in E. coli; label from the status in PepcDB or PDB records
row,Sequence,soluble on expression in E. coli
1,MAHHHHHHMGTLEAQTQGPGSMSAPLAEVDPDIAELLAKELGRQRDTLEMIASENFVPRAVLQAQGSVLTNKYAEGLPGRRYYGGCEHVDVVENLARDRAKALFGAEFANVQPHSGAQANAAVLHALMSPGERLLGLDLANGGHLTHGMRLNFSGKLYENGFYGVDPATHLIDMDAVRATALEFRPKVIIAGWSAYPRVLDFAAFRSIADEVGAKLLVDMAHFAGLVAAGLHPSPVPHADVVSTTVHKTLGGGRSGLIVGKQQYAKAINSAVFPGQQGGPLMHVIAGKAVALKIAATPEFADRQRRTLSGARIIADRLMAPDVAKAGVSVVSGGTDVHLVLVDLRDSPLDGQAAEDLLHEVGITVNRNAVPNDPRPPMVTSGLRIGTPALATRGFGDTEFTEVADIIATALATGSSVDVSALKDRATRLARAFPLYDGLEEWSLVGR,soluble
2,AHHHHHHGSVDYELLKKVVEAPGVSGYEFMGIRDVVIEEIKDYVDEVNVDKLGNVIAHKKGEGPKVMIAAHMDQIGLMVTHIEKNGFLRVAPIGGIDPRTLIAQRFKVWIDKGKFIYGVGGSVPPHIQKPEDRKKAPDWDQIFIDIGAESKEEAEELGVKIGTIVTWDGRLERLGKHRFVSIAFDDRIAVYTLIETARQLQDTKADIYFVATVQEEVGLRGARTSAFGINPDYGFAIDVTIAADVPGTPEHKQVTQLGKGTAIKIMDRSVICHPTIVRWMEELAKKYEIPYQWDILLGGGTDAGAIHLTRAGVPTGAVSIPARYIHSNAEVVDERDVDASVKLMVKVLEHIHELKI,soluble
3,MPTETLSSVFVLVVLLPTSGLLPRTEAAFVASSSIEYCERSSNGEPFPCEKKMVVGLSVGSEQTIEAEEVVLLREAVDKTGDEKGKRVEFEPIRLVTTKSPVQYRYPIYYIRNFNAKPYEQRLRTSASSWCDDSSNPGSATCGVARDRRGDVIPYSQGFCCLCGACALSGICNPTSRSVGTCSVTGDTGMASCLRFSDLWYGGYTIGRGVVWYELQVKLSSGNNSTGGGSTGSKEFTMSLGPDKLTATSTEFGASARLIGDFAPPEMPLDLSGKMLFIPSEPRGHERVGAGYNEWIIVDTHLVSIRGTECNKVGVSYEGFATQGSRCDAYPGACLANQLEDYRDRDLEAETKGQQGKYMARFFAPFGFDPLANASAPAVAYQVTGTLSTMVTITISADKLNFVLSVSSGVVVGATVSGKVVHSYSRGSTITVTVLNTGDIEAQYTVVVGECTVNVQPMVAQTVYIPLQGSAQRRFTLIVQDSIEGEAKCNATLRNARGDVVDTRAISFGVKALKPSNGSQGGSTFENGRYSEEAKGESQCQQCSWFNLLCFLRHRCWWQPLVYVLPSVTLLMLLRRFLESQSRSRPRPQLHPDEHELRNTGAISSCHLPRAPYVNTVH,not soluble
4,GTPLSSDEKIRVLVWNIFKQQRAEWQSVLKNFGKDAHLVLLQEAQTTPELVRFATSNYLAADQVPALVLPQHPSGVMTLASAHPIYCCPLREREPILRLPKSALVTVYPLPDARLLMVVNIHAVNFSLGVDVYSKQLLPIGDQIAHHSGPVIMAGDFNAWSRPRMNALYRFAREMSLREVRFSDDQRRRAFGRPLDFVFYRGLSVHDASVLVTRASDHNPLLVEFSPGKP,not soluble
5,PMFEAAYDFPGSGSPSELPLKKGDVIYITREEPSGWSLGKLLDGSKEGWVPTAYMKPH,soluble
6,MAHHHHHHMGCKSSAEAKPSETRSPSARLSRNSVTTPPDRMDTAHRLHPAAREEVDLDPENVAGAEHISPSVVTARSSSRVAAVTLHGICGYTHNGVPAYSNGTSNTWPWMKNFCEGIFMGYQWQCVEFARRWLWVTHRLLLPKRSCAYCFSSCTYAYRLKKDSSLISQRARAAMHKAAAETGAGSPSSSKEVNAATEARHLGPCTSRDTWEKVPAKFVKQGSLVPPVADSLIVYPISWGSPWGHIGVITAVDLDRHRVYVADQNRYFHDWNG,soluble
7,MSNDETVEKVTQQVSELKSTDVKEQVVTPWDVEGGVDEQGRAQNIDYDKLIKQFGTKPVNEETLKRFKQVTGREPHHFLRKGLFFSERDFTKILDLYEQGKPFFLYTGRGPSSDSMHLGHMIPFVFTKWLQEVFDVPLVIELTDDEKFLFKHKLTINDVKNFARENAKDIIAVGFDPKNTFIFSDLQYMGGAFYETVVRVSRQITGSTAKAVFGFNDSDCIGKFHFASIQIATAFPSSFPNVLGLPDKTPCLIPCAIDQDPYFRVCRDVADKLKYSKPALLHSRFFPALQGSTTKMSASDDTTAIFMTDTPKQIQKKINKYAFSGGQVSADLHRELGGNPDVDVAYQYLSFFKDDDVFLKECYDKYKSGELLSGEMKKLCIETLQEFVKAFQERRAQVDEETLDKFMVPHKLVWGEKERLVAPKPKTKQEKKHHHHHH,soluble
8,MDVIPLSLGLETMGGLVEKVIPRNTTIPVARAQDFTTFKDGQTAMSIHVMQGERELVQDCRSLARFALRGIPALPAGGAHIRVTFQVDADGLLSVTAMEKSTGVEASIQVKPSYGLTDSEIASMIKDSMSYAEQDVKARMLAEQKVEAARVLESLHGALAADAALLSAAERQVIDDAAAHLSEVAQGDDVDAIEQAIKNVDKQTQDFAARRMDQSVRRALKGHSVDE,soluble
9,MAHHHHHHMSVSSPLASSGEREQYGPQEQRQYGFVPVQMTNLVPVRVVSVHGDFFDMEIHQDAPLHIVQRAAEDCFKVRPELQLLTHNRKPINPNQSLRRNGCLLLKGDPFVKIVLDVKKGSRLNIVCQMAHCEPIPLACEAEDTIWDVKKKFCSSLEKSEVTPQRIRLLWRYWELNDKATVDYYHIPTNSKLTVMKKRDILGGQQTERRRAPSQRRRQDVQRRHERCDADTDDVAAWPKAPSVVPPYEKYRQASGREPLEGEDNRSKTPNANGSAQVVEGGADRDSHHPPIRAWPALPQEQFGRAVIPLYPIVPPLSGGSYYREPRAQTPDRRPAVVPVAEATQVVDFTEVQRLRMEVEELGRRMETCVTDRAEFSAMEESFRAAVTRVSELEASVGRVQNLLKRALHLM,not soluble
10,MGSDKIHHHHHHMSNHAIPARLQLRHITKRYPGCLANDAVDLTIQPGEIHALLGENGAGKSTLMKIIYGVTQPDAGSIIWQGQAQIMRNPAQARSLGIGMVFQHFSLFETLSVAQNIALAMGAAAGTPRQLEPRIREVSQRYGMAVEPQRLVHSLSIGERQKVEIIRCLMQDIHLLILDEPTSVLTPQEAEELFVTLRHLASEGCSILFISHKLGEVRALCHSATVLRNGKVSGHCIPAECSDLELARLMVGDAEGLTAHYEKVSGGAAFLQVDRLSWHNPDPFGCSLKDLSLEVCSGEIVGIAGVAGNGQDELLALLSGEQTLPHAQAATLRFANTPVGHLRPDARRKRGLAFVPAERLGHGAVPELSLADNALLTAFQQGLVSNGLIQRGKARALADEIIRRFAVKTPDAQAPARSLSGGNLQKFILGREILQNPKLLIAAHPTWGVDVGAAAAIHRALIALRDAGAAILVISEDLDELFQISDRLAALSGGQLSDLIPTEQTSTVQIGGWMAGQFDHSQTQAHTPG,not soluble
11,MKYVDGFVVAVPADKKDAYREMAAKAAPLFKEFGALRIVECWASDVPDGKVTDFRMAVKAEENEEVVFSWIEYPSKEVRDAANQKMMSDPRMKEFGESMPFDGKRMIYGGFESIIDE,soluble
12,MCVHTRKPDGLHPKPVSHCPVIDTGQSEWRSFTFTTICMGFRPRQAYRQPSPIANETENTMSNSNIQQEAQDIHDQLPESVDASPEDIEERLTTLVDDYRVPLDEAQRSVVSTYLSDSDVDRDDVSSENENQQVDLEEITEAEQWVDITAKVADLWEPRSDSIAQVGLLGDETGTIKFTKWAKSDLEALTEGQVYRLGNVVTDEYQGQYSVKLNRTTTIEALDQDIEVGDDTTDAEGALVDIQSGSGLIKRCPEDDCTRVLQNGRCSEHGEGEGEFDLRIKGVIDNGDTVQEVIFDKEATEQVADITLAQAQEMAMDALDTSVVADEIREVTLGRYYRVQGPELGRYLLVNEFEQLAEMHDPEQLLITARSI,soluble
13,MGSDKIHHHHHHMPKKSFAQDCLYTAIMRLMREKDVDDITVKELVLKAGVARSTFYRYYTQPMDVLRDYLRPFNHGNAHLDDKDDKKVYLRRFYQYYTGHSELIYTLVQANKTEFLRETISCHILEVFSPMMTNKGVSPFLQKASVGLCVETLILWIVNDRKEKIEEMTDTVHNMVAVVERVS,not soluble
